Measured values reported in patent publication US20230399394A1 (SUNSHINE GUOJIAN PHARMACEUTICAL SHANGHAI, published 2023).
Where a chain is given by its changes, count along the chain named.

B1: 874F7 (antibody, V domains shown)
VH: QVQLKESGPGLVAPSHSLSITCNVSGFSLSKYGVHWIRQIPGRGLDWLGVLRAGGSTGYNSALMSRLSISKDSSKSQVFLKMNDLRTDDTAVYFCVRDHYYYSSYGGFVYWGQGTLVTVSA
VL: DIQMTQSPASQSASLGESVTITCLASQTIGAWLAWYRQQPGKSPQLLIYAATRLADGVPSRFSGSGSGTEFSFKINNLQAEDFVSYYCQQLDSSPYTFGGGTRLEM
notes: Murine hybridoma antibody purified on Protein G; also called murine antibody 874F7
B2: 874F7-Hu1 (antibody, human IgG4 S228P, kappa)
heavy: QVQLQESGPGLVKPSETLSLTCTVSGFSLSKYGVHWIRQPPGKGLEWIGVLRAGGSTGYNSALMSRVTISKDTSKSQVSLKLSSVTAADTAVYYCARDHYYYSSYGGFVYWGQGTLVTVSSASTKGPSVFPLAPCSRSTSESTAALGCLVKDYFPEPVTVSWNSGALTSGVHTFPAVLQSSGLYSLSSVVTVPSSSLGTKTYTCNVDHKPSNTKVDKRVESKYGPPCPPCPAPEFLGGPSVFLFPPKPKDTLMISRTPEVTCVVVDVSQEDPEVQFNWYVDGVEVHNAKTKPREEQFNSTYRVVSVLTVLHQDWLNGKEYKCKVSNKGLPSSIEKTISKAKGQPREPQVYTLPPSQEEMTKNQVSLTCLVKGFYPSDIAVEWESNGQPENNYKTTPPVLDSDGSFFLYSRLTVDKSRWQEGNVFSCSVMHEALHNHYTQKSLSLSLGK
light: DIQMTQSPSSVSASVGDRVTITCLASQTIGAWLAWYQQKPGKSPKLLIYAATRLADGVPSRFSGSGSGTDFTLTISSLQPEDFATYYCQQLDSSPYTFGQGTKVEIKRTVAAPSVFIFPPSDEQLKSGTASVVCLLNNFYPREAKVQWKVDNALQSGNSQESVTEQDSKDSTYSLSSTLTLSKADYEKHKVYACEVTHQGLSSPVTKSFNRGEC
notes: also called 874F7-Hul; humanized antibody 874F7-Hu1

Tests used:
Human IL-33-his = biological target: T1, Human IL-33-his (human, UniProt O95760 112-270, biotinylated with EZ-Link NHS-Biotin where used as IL-33-his-biotin); test: indirect ELISA, biotinylated IL-33-his on streptavidin plate
T1 construct: Used plain (SPR, cell assays) and biotinylated (ELISA); also called IL-33-his-biotin
T1 sequence: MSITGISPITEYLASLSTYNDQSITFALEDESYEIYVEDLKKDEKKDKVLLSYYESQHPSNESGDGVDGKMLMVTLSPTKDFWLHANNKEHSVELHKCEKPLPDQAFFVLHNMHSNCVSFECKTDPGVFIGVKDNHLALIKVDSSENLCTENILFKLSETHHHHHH
Method: The binding ability of murine antibody to human IL-33 protein was determined by indirect enzyme-linked immunosorbent assay (ELISA). The specific methods were as follows: The plate was pre-coated with biotin-avidin (SA) which was diluted in coating solution (50 mM carbonate coating buffer, pH 9.6) to 2 μg/ml at 4° C. overnight, then the plate was blocked with 5% skim milk powder at 37° C. for 2 hours and stored at −80° C. for later use. Biotinylated recombinant human IL-33-his protein was diluted to 0.5 μg/ml in coating solution (50 mM carbonate coating buffer, pH 9.6) and was added at 100 μl/well to the pre-coated SA plate, 37° C., 0.5 h. After washing the plate with PBST for 3 times, the antibodies to be tested were diluted by gradient with 1% BSA buffer and added into the blocked plate at 100 μl/well, and incubated at 37° C. for 1 hour. The plate was washed with PBST for 3 times, and the HRP-labeled goat anti-mouse IgG was added and placed at 37° C. for 30 min. After washing the plate with PBST for 3 times, the plate was patted on the absorbent paper to remove residual droplets as far as possible. […] OD values were read at 450 nm on the microplate reader to analyze the binding ability of the antibodies to be tested to the target antigen human IL-33-his.

[1] = biological target: T2, IL-33 protein without any mutation (WT) (human, UniProt O95760 112-270); test: ELISA as Example 9; row WT-4, the reference itself
T2 construct: Control of the alanine scan (four runs WT-1 to WT-4); also called WT-1; WT-2
T2 sequence: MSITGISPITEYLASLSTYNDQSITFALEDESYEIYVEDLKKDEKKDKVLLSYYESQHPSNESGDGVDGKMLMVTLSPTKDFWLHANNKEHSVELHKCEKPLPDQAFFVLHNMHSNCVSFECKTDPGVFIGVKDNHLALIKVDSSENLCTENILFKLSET
Method: (§1) SA protein was diluted to 2 μg/mL to coat ELISA plate at 100 μL/well overnight at 4° C. The plate was washed with PBST (PBS containing 0.05% Tween20) for 3 times, and blocked with 2% BSA prepared in PBS at 200 μL/well, at room temperature for 2 h. After the plate was washed twice with PBST, IL-33-his-biotin protein was diluted to 1 μg/mL with 1% BSA prepared in PBST, and was added to ELISA plate at 100 μL/well. The plate was incubated at room temperature for 1 h, and each monoclonal antibody was diluted with 1% BSA prepared in PBST in a 3-fold gradient. The highest concentration of antibody was 10 μg/mL, and the antibody was diluted for 12 gradients. Each diluted monoclonal antibody was added to ELISA wells with 100 μL/well, and the plate was incubated at room temperature for 1 h. Each sample was added to duplicate wells in parallel. The plate was washed with PBST for 3 times, and HRP-anti human IgG Fc secondary antibody prepared with PBST was diluted at an appropriate ratio, and was added to ELISA wells at 100 μL/well. […] Each reaction solution was shaken uniformly and OD450 nm was read on a microplate reader. The data was analyzed and EC₅₀ was calculated.
(§2) Subsequently, according to the experimental method of Example 9, the affinity of the above mutant proteins to 874F7-Hu1 was determined, and IL-33 proteins (WT-1, WT-2, WT-3, and WT-4) without any mutation were set as controls.

[2] = biological target: T3, IL-33 mutant protein K46A (human, UniProt O95760 112-270); test: ELISA as Example 9; row K46A
T3 construct: Prokaryotic expression
T3 chain: T2 sequence with K46A
Method: as §1, §2

[3] = biological target: T4, IL-33 mutant protein Q57A (human, UniProt O95760 112-270); test: ELISA as Example 9; row Q57A against WT-1
T4 construct: Prokaryotic expression
T4 chain: T2 sequence with Q57A
Method: as §1, §2

[4] = biological target: T5, IL-33 mutant protein E44A (human, UniProt O95760 112-270); test: ELISA as Example 9; row E44A against WT-1
T5 construct: Prokaryotic expression
T5 chain: T2 sequence with E44A
Method: as §1, §2

[5] = biological target: T6, IL-33 mutant protein V49A (human, UniProt O95760 112-270); test: ELISA by the method of Example 9 with the IL-33 mutant protein on the plate, 874F7-Hu1 in serial dilution, HRP anti-human IgG Fc, absorbance 450 nm
T6 construct: Prokaryotic expression
T6 chain: T2 sequence with V49A

Binder | EC50 (Human IL-33-his) [nM] | Affinity decline ratio [1] [fold] | EC50 [2] [nM] | Affinity decline ratio [3] [fold] | Affinity decline ratio [4] [fold] | EC50 (read off the curve) [5] [nM]
B1 | 0.11 |  |  |  |  | 
B2 |  | 1 | 0.23 | 0.5 | 0.6 | ~3
